Positions count from the first letter of the chain named.
B1: Ketose 3-epimerase mutant 18: amino acid-substituted mutant of SEQ ID NO: 1 (protein)
chain: MKIGCHGLVWTGRFDAEGIRYSVQKTKEAGFDLIEFPLMDPFSFDVATAKSALAEHGLTASASLGLSEATDVSSEDPAIVKAGEELLNRALDVLAELGATEFCGVIYSAMKKYMEPATEQGLSNSKAAVGRVVDRAAGLGINVSLEVVNRYETNVLNTGRQALSYLSDVKRPNLGVHLDTYHMNIEESDMFSPVLDTAEALKYVHIGESHRGYLGTGSVDFDNFFKALGRIGYDGPVVFESFSSAVVAPDLSRMLGIWRNLWADNEELGAHANAFIRDKLTAIKTIELH
modifications: Arthrobacter histidinolovorans
B2: Ketose 3-epimerase mutant 19: amino acid-substituted mutant of SEQ ID NO: 1 (protein)
chain: B1 chain with T59S, A60V, E101D, V129I, A200V, S218N
modifications: Arthrobacter histidinolovorans
B3: Ketose 3-epimerase mutant 20: amino acid-substituted mutant of SEQ ID NO: 1 (protein)
chain: B1 chain with T59S, A60V, E101D, V129I
modifications: Arthrobacter histidinolovorans
B4: Ketose 3-epimerase mutant 21: amino acid-substituted mutant of SEQ ID NO: 1 (protein)
chain: B1 chain with T59S, A60V
modifications: Arthrobacter histidinolovorans
B5: Ketose 3-epimerase mutant 22: amino acid-substituted mutant of SEQ ID NO: 1 (protein)
chain: B1 chain with T59S, A60V, P77S, L94V, A109S, V129I, S144A, S167Q, A200V, S218N
modifications: Arthrobacter histidinolovorans
B6: Ketose 3-epimerase mutant 23: amino acid-substituted mutant of SEQ ID NO: 1 (protein)
chain: B1 chain with E101D, P172G
modifications: Arthrobacter histidinolovorans
B7: Ketose 3-epimerase mutant 24: amino acid-substituted mutant of SEQ ID NO: 1 (protein)
chain: B1 chain with E101D, S167Q
modifications: Arthrobacter histidinolovorans
B8: Ketose 3-epimerase mutant 25: amino acid-substituted mutant of SEQ ID NO: 1 (protein)
chain: B1 chain with E101D, K202R
modifications: Arthrobacter histidinolovorans
B9: Ketose 3-epimerase mutant 26: amino acid-substituted mutant of SEQ ID NO: 1 (protein)
chain: B1 chain with L97M, E101D
modifications: Arthrobacter histidinolovorans
B10: Ketose 3-epimerase mutant 27: amino acid-substituted mutant of SEQ ID NO: 1 (protein)
chain: B1 chain with V129I
modifications: Arthrobacter histidinolovorans
B11: Ketose 3-epimerase mutant 28: amino acid-substituted mutant of SEQ ID NO: 1 (protein)
chain: B1 chain with V129I, A200V, S218N
modifications: Arthrobacter histidinolovorans
B12: Ketose 3-epimerase mutant 29: amino acid-substituted mutant of SEQ ID NO: 1 (protein)
chain: B1 chain with H56Y, E101D
modifications: Arthrobacter histidinolovorans
B13: Ketose 3-epimerase mutant 30: amino acid-substituted mutant of SEQ ID NO: 1 (protein)
chain: B1 chain with E101D, S144A
modifications: Arthrobacter histidinolovorans
B14: Ketose 3-epimerase mutant 31: amino acid-substituted mutant of SEQ ID NO: 1 (protein)
chain: B1 chain with E101D, E199D
modifications: Arthrobacter histidinolovorans
B15: Ketose 3-epimerase mutant 32: amino acid-substituted mutant of SEQ ID NO: 1 (protein)
chain: B1 chain with P77S, E101D
modifications: Arthrobacter histidinolovorans
B16: Ketose 3-epimerase mutant 33: amino acid-substituted mutant of SEQ ID NO: 1 (protein)
chain: B1 chain with T59S, A60V, A200V, S218N
modifications: Arthrobacter histidinolovorans
B17: Ketose 3-epimerase mutant 34: amino acid-substituted mutant of SEQ ID NO: 1 (protein)
chain: B1 chain with E101D, A128V
modifications: Arthrobacter histidinolovorans
B18: Ketose 3-epimerase mutant 35: amino acid-substituted mutant of SEQ ID NO: 1 (protein)
chain: B1 chain with E101D, V132I
modifications: Arthrobacter histidinolovorans

test: Thermal stability: residual activity after incubation at 60° C. for one hour; assay type: biochemical; details: crude recombinant enzyme; after incubation at 60° C. for 1 hour
Procedure: Thermal stability of the enzyme was investigated by measuring the activity of the enzyme after incubation at 60° C. for one hour and finding its relative activity supposing that the activity at 60° C. under the reaction conditions (10 minutes) used for determining the optimum temperature in the above 2 shown in Table 2 was 100. As heat treatment conditions, the crude enzyme solution, a buffer (50 mM tris-HCl, pH 7.5), and 2 mM MgCl2 were used to give a total amount of 200 p1 and after retaining at 60° C. for one hour, the reaction mixture was cooled for 10 minutes in ice water. The residual enzyme activity was then measured by the conventional method.
The activity of each of the present enzyme (crude recombinant enzyme) and the crude enzyme of the control enzyme after incubation at 60° C. for 1 hour was measured and a relative activity of it was determined supposing that the activity at 60° C. under the reaction conditions (10 minutes) for determining the optimum temperature in the above 2 shown in Table 2 is 100. The relative activity was used as a heat resistance index of the enzyme. As heat treatment conditions, the crude enzyme solution, a buffer (50 mM tris-HCl, pH 7.5), and 2 mM MgCl2 were used to give a total amount of 200 p1 and after retaining at 60° C. for one hour, the reaction mixture was cooled for 10 minutes in ice water. The residual enzyme activity was measured by the conventional method.

Row | Molecule | Residual activity (%)
1 | B1 | 72.1%
2 | B2 | 91.2%
3 | B3 | 52.1%
4 | B4 | 59.4%
5 | B5 | 113.5%
6 | B6 | 65.8%
7 | B7 | 55.4%
8 | B8 | 51.4%
9 | B9 | 68.9%
10 | B10 | 61.9%
11 | B11 | 112.7%
12 | B12 | 56.8%
13 | B13 | 66.9%
14 | B14 | 58.1%
15 | B15 | 39.9%
16 | B16 | 91.0%
17 | B17 | 57.2%
18 | B18 | 69.2%

test: Ketose 3-epimerase activity ratio (T70/T50) at reaction temperature of 70° C. to 50° C.; assay type: biochemical; details: crude recombinant enzyme; ratio of activity at 70° C. to activity at 50° C., 10 min reaction
Procedure: An enzyme having higher heat resistance than an amino acid substitution-free wild type enzyme can be obtained by introducing mutation into the gene of the ketose 3-epimerase of the present invention and substituting the corresponding amino acid residue with another amino acid residue by a site-directed mutagenesis operation to prepare various amino acid-substituted mutants. The heat resistance is evaluated by two indices, that is, a ketose 3-epimerase activity ratio (T70/T50) at the reaction temperatures of 70° C. to 50° C. and a residual activity after incubation at 60° C. for one hour.
Heat resistance of the present enzyme (crude recombinant enzyme) and the crude enzyme of the control enzyme was investigated by measuring an activity at 70° C. and an activity at 50° C. under the reaction conditions (10 minutes) used for determining the optimum temperature in the above 2 shown in Table 2 and finding their ratio (T70/T50).

Row | Molecule | T70/T50
19 | B1 | 1.85
20 | B2 | 1.85
21 | B3 | 1.79
22 | B4 | 1.70
23 | B5 | 1.70
24 | B6 | 1.69
25 | B7 | 1.68
26 | B8 | 1.66
27 | B9 | 1.65
28 | B10 | 1.64
29 | B11 | 1.62
30 | B12 | 1.58
31 | B13 | 1.57
32 | B14 | 1.54
33 | B15 | 1.53
34 | B16 | 1.46
35 | B17 | 1.38
36 | B18 | 1.34

From US20210395718A1, “NOVEL KETOSE 3-EPIMERASE” (NATIONAL UNIVERSITY CORPORATION KAGAWA UNIVERSITY, priority 2018, published 2021)
